Consider 17 sequences from the DeepSol protein solubility set.

This series can be described thus: soluble on expression in E. coli; label from the status in PepcDB or PDB records.
Consider “MTVWSKLLSALRGGANEVGEAIVDSQALRILDQEIRDADVELRKSREALASIMARHRLAQERVEKGAAQVAEYEQYAIKALEAGNEELAREVAEKIATLENQLEGERAQVAEFAASVAQLRKSVSQAEGNIRQLKQQVDTVKATESVQKAQMAVAQRYGNSKSKLQTAVDSLERIKQRQAERAATMDAAAELASAAAPDDALDAKLRAAGIKASGNSVDGVLARLKEKGKAAAALEHHHHHH”, for which the “soluble on expression in E. coli” value is “not soluble”.

Consider “MTYEAGCGLIKALEDPDNRVRQRAVKTLGKRGNPDVLEDLMEALKDSRQPVQEAASEALRKIIAASDSVPVLVKALDATDRNVRKAAIEALWKAGTPEAIPPLLRELDDADWYLRSRAADALADIASPEAALGLIKVMDIHDSPVKKIIVNALGKIGTVEAVEGLVKALEDLEHHHHHH”, for which the “soluble on expression in E. coli” value is listed as “not soluble”.

In the case of “MTYSHEVEHMCVVKKGPNHGPAPIPEEGKWVKSKEIVDISGLTHGIGWCAPQQGACKLTLNVKEGVIQEALVETIGCSGMTHSAAMAAEILPGKTILEALNTDLVCDAINTAMRELFLQIVYGRTQSAFSEGGLIIGAGLEDLGKGLRSQVGTLYGTLAKGPRYLEMAEGYIKNIFLDKNDEICGYEFVHMGKFMDEIKKGTDANEALKKVTGTYGRVTAEQGAVKHIDPRHE”, the “soluble on expression in E. coli” value is on record as “not soluble”.

Consider “MTYSIVAISGSPSRNSTTAKLAEYALAHVLARSDSQGRHIHVIDLDPKALLRGDLSNAKLKEAVDATCNADGLIVATPIYKASYTGLLKAFLDILPQFALAGKAALPLATGGSPAHVLALDYGLRPVLHSMGVRHVVQSFFLVQSQFSVVDGKLAVEDDVASQLNNAIDHFRLSLSSEPSTRHLGHPRPSLDATRAA”, for which the “soluble on expression in E. coli” value was “soluble”.

As to “MTYWICITNRENWEVIKRHNVWGVPKKHKNTLSRVKPGDKLVIYVRQEKDKEGNLLEPKIVGIYEVTSEPYVDFSRIFKPHRGGKETYPYRVKIKPIKIGEINFKPLINDLKFIKNKKRWSMHFFGKAMRELPEEDYKLIEKLLL”, the “soluble on expression in E. coli” value is given as “soluble”.

In the case of “MVAFTVDQMRSLMDKVTNVRNMSVIAHVDHGKSTLTDSLVQRAGIISAAKAGEARFTDTRKDEQERGITIKSTAISLYSEMSDEDVKEIKQKTDGNSFLINLIDSPGHVDFSSEVTAALRVTDGALVVVDTIEGVCVQTETVLRQALGERIKPVVVINKVDRALLELQVSKEDLYQTFARTVESVNVIVSTYADEVLGDVQVYPARGTVAFGSGLHGWAFTIRQFATRYAKKFGVDKAKMMDRLWGDSFFNPKTKKWTNKDTDAEGKPLERAFNMFILDPIFRLFTAIMNFKKDEIPVLLEKLEIVLKGDEKDLEGKALLKVVMRKFLPAADALLEMIVLHLPSPVTAQAYRAEQLYEGPADDANCIAIKNCDPKADLMLYVSKMVPTSDKGRFYAFGRVFAGTVKSGQKVRIQGPNYVPGKKDDLFIKAIQRVVLMMGRFVEPIDDCPAGNIIGLVGIDQFLLKTGTLTTSETAHNMKVMKFSVSPVVQVAVEVKNANDLPKLVEGLKRLSKSDPCVLTYMSESGEHIVAGTGELHLEICLQDLEHDHAGVPLKISPPVVAYRETVESESSQTALSKSPNKHNRIYLKAEPIDEEVSLAIENGIINPRDDFKARARIMADDYGWDVTDARKIWCFGPDGNGPNLVIDQTKAVQYLHEIKDSVVAAFQWATKEGPIFGEEMRSVRVNILDVTLHADAIHRGGGQIIPTMRRATYAGFLLADPKIQEPVFLVEIQCPEQAVGGIYSVLNKKRGQVVSEEQRPGTPLFTVKAYLPVNESFGFTGELRQATGGQAFPQMVFDHWSTLGSDPLDPTSKAGEIVLAARKRHGMKEEVPGWQEYYDKL”, the “soluble on expression in E. coli” value is “soluble”.

Regarding “MVAVYDVEFPLPLNTQPMEARAAGVLPRDDGPWQYEPKWDGFRCLAFKAGKAVDLRAKSGKPLGRYFPELMAALSALAATEFVIDGEIIIEIEGRASFDALQMRLHPAESRIRKLSRETPARLVVFDMLVAPEGRPRMELPLRDRRAEAEDLVAKAKTKTLRLSPATTSLATADNWLKGAGSGSIDGVVAKLLNGPYRPGERAMVKVKRLRTADCVVGGFRYLNGKRQVGSLLLGLYNGDGLLDHVGFTSTIANDERAVLTEKLENLRGGSGFTGKAPGGPSRWSTERSGEWEPVRPELVVEVRFDHVTGDRFRHGTKLVRWRPDKAPLQCTFEQLELEHHHHHH”, the “soluble on expression in E. coli” value was “soluble”.

Take “MVDIPPPFDLACITKKPITKSSPSLLIESDSPDKYKKKKSSFKRFLALTFKKKTENKLHVDVNVSSSRSSSESSYHGPSRILEVDRRSLSNSPQLKSRTGKLRASESPSSLIFYRDGKRKGVPFSRTVSRVESFEDRSRPPFLPLPLTKPRSISFPSADTSDYENIPAMNSDYENIQIPPRRPARAGAFTKLFEDQSRALSTANENDGYVDMSSFNAFESKQQSADQDAESAYTEPYKVCPISSAAPKEDLTSDEEQRSSEEEDSASRDPSVTHKVEGQSRALVIAQELLSSEKAYVEMLQHLNLDFHGAVMRALDDMDHEGRDTLAREELRQGLSELPAIHDLHQGILEELEERLSNWESQQKVADVFLAREQGFDHHATHILQFDRYLGLLSENCLHSPRLAAAVREFEQSVQGGSQTAKHRLLRVVQRLFQYQVLLTDYLNNLCPDSAEYDNTQGALSLISKVTDRANDSMEQGENLQKLVHIEHSVRGQGDLLQPGREFLKEGTLMKVTGKNRRPRHLFLMNDVLLYTYPQKDGKYRLKNTLAVANMKVSRPVMEKVPYALKIETSESCLMLSASSCAERDEWYGCLSRALPEDYKAQALAAFHHSVEIRERLGVSLGERPPTLVPVTHVMMCMNCGCDFSLTLRRHHCHACGKIVCRNCSRNKYPLKYLKDRMAKVCDGCFGELKKRGRAVPGLMRERPVSMSFPLSSPRFSGSAFSSVFQSINPSTFKKQKKVPSALTEVAASGEGSAISGYLSRCKRGKRHWKELWFVIKGKVLYTYMASEDKVALESMPLLGFTIAPEKEEGSSEVGPIFHLYHKKTLFYSFKAEDTNSAQRWIEAMEDASVL”: the “soluble on expression in E. coli” value is “soluble”.

Turning to “MVDKLKQQNCTISTCESLTAGLMAATIANLPGSSQVLRGGLITYATDSKVSVAGVPGATVEEHGPVSWQCAEAMAIGAKRQFQSQWAVSLTGVAGPATQCGQPVGTVWIGVALPNGTVKSKLVADILCGPGQVVAGDRQTIRLAAVRAAAMWITDLLGLEYTNEN”, the “soluble on expression in E. coli” value is “not soluble”.

In the case of “MVDKREEVMHVAMFPWLAMGHLLPFLRLSKLLAQKGHKISFISTPRNIERLPKLQSNLASSITFVSFPLPPISGLPPSSESSMDVPYNKQQSLKAAFDLLQPPLKEFLRRSSPDWIIYDYASHWLPSIAAELGISKAFFSLFNAATLCFMGPSSSLIEEIRSTPEDFTVVPPWVPFKSNIVFRYHEVTRYVEKTEEDVTGVSDSVRFGYSIDESDAVFVRSCPEFEPEWFGLLKDLYRKPVFPIGFLPPVIEDDDAVDTTWVRIKKWLDKQRLNSVVYVSLGTEASLRHEEVTELALGLEKSETPFFWVLRNEPKIPDGFKTRVKGRGMVHVGWVPQVKILSHESVGGFLTHCGWNSVVEGLGFGKVPIFFPVLNEQGLNTRLLHGKGLGVEVSRDERDGSFDSDSVADSIRLVMIDDAGEEIRAKAKVMKDLFGNMDENIRYVDELVRFMRSKGSSSSS”, the “soluble on expression in E. coli” value is reported as “not soluble”.

With “MVDPPGNDDDHGDLDALDFSAAHTNEASPLDALDDYAPVQTDDAEGDLDALHALTERDEEPELELFTVTNPQGSVSVSTLMDGRIQHVELTDKATSMSEAQLADEIFVIADLARQKARASQYTFMVENIGELTDEDAEGSALLREFVGMTLNLPTPEEAAAAEAEVFATRYDVDYTSRYKADD”, the “soluble on expression in E. coli” value is recorded as “soluble”.

For “MVDRVIEMAIQQQPMTEPVGIPVIILKEGTQRSYGREALRANIMAVRAIAQILKTTYGPKGMDKMLVDSLGDITITNNGATILDKMDVAHPAAKMLVQISKGQEDEAGDGTKTTVIFAGELLKEAEKLLDINIHPTIIVEGYKEALRKASEVIESIAEPVSYDDVEKLKLIAKTSLNSKAVAEARDYFAELAVEAVRTVAERRGDRWYVDLNNIQIVKKHGGSLRDTRLVRGIVLDKEVVHPDMPRRVENARIALLDTPLEIEKPEIDLEISITSPEQIKALYEKQERILQEKIEKIAATGANVVITQKGIDDVAQHFLAKKGILAVRRVKRSDIEKIARATGARIVTDIEDLRPEDLGYAELVEERKVGEDKMVFIEGAKNPKSVTILLRGGFERLVDEAERSLHDALSVVADAIMDGKIVAGGGAVEAEVAKVLYEYASKLPGKTQLAVEAFARAVEALPQALAHNAGHDPIEVLVKLRSAHEKPENKWYGVDLDTGEIVDMWSRGVLEPMRVKLNALKAATEVASLILRIDDVIAARKEEEEKEEKRGGEEE”, the “soluble on expression in E. coli” value was “soluble”.

Consider “MVEIVGHRAFKARYPENTLLAFEKAYAAGADVIETDLQMTSDGMVVVNHDSDTGRMWDKNLVIGESTWEEVKRLRCKEDGSLAMMTLKEILTWAVCHPGAKLMLDIKFTNEKIIMIKTFVIMLEVKNDLKFWQERITWGLWLLDWYDFGIETGVLKDFKVIVISLSLDIASQFVKRSLTLNDPHYKLFGISVHFVSSWTSQFRLRLLPVLMKNDIKVYLWTVNKPIDFKYLCELPIHGAITDDPIKARKLCDGHTVAKKPTAEKKFVAPSLASVDGLRFHAFIKVYNILCTLLYSKWVHIKLCGWSIAYVIFLFLRTIHFL”, for which the “soluble on expression in E. coli” value is “soluble”.

As for “MVEMDGRKFLKLLKEEVHKAVVGKDDVIELLAIALLAEGHVMIEGVPGVAKTTIAKSFAQVLGLKFSRIQLTPDLLPADILGTVYYDQSDGLWKIKKGPIFANVVLADEINRAQPKTQSALLEAMQERQVTIEGRTFPLEKPFMVIATKNPIEFEGVYNLPEAQVDRFMLNIKIGYPTREEEVEMLRKKDRGELGEVGRIFSREQIVRMINEVKRVKTSEEVLHYLYEIVNETRKDERLIVGASPRASEHLLYASKAKAFLEGRDYVIPDDVKFLAVPVLAHRLLIKAEHEIEGIKGEDIVREILERVEVPI”, the “soluble on expression in E. coli” value was “soluble”.

Consider “MVESQFEQDSQISTDSPLVLVKAAEKTSAIQQLLDYISNYQMISSNSIPIKSMDKIMMLKLDDIILVDVNQTTLKIYTLTGVFTTTETLVHFANRLNKSNFIQISKHALINLDHLESLSDSFSGNMMAKLSSNIKSSVSRKYVKGLMTQLGI”, for which the “soluble on expression in E. coli” value is given as “not soluble”.

“MVFPSEQEQIEKFEKDHVAQHYFEVLRTLISKKSVFAQQVGLKEVANYLGEIFKRVGAEVEIDESYTAPFVMAHFKSSRPDAKTLIFYNHYDTVPADGDQVWTEDPFTLSVRNGFMYGRGVDDDKGHITARLSALRKYMQHHDDLPVNISFIMEGAEESASTDLDKYLEKHADKLRGADLLVWEQGTKNALEQLEISGGNKGIVTFDAKVKSADVDIHSSYGGVVESAPWYLLQALQSLRAADGRILVEGLYEEVQEPNEREMALLETYGQRNPEEVSRIYGLELPLLQEERMAFLKRFFFDPALNIEGIQSGYQGQGVKTILPAEASAKLEVRLVPGLEPHDVLEKIRKQLDKNGFDKVELYYTLGEMSYRSDMSAPAILNVIELAKKFYPQGVSVLPTTAGTGPMHTVFDALEVPMVAFGLGNANSRDHGGDENVRIADYYTHIELVEELIRSYE”: the “soluble on expression in E. coli” value is listed as “soluble”.

In the case of “MVFRKYRAVKQWGKMDTRIFKEIYNSRNKRKMPAFEVPDAVKALGVPVFEPNEIFQLSNRKNLVEQAAKEHMENELKFTEPPQQHPLQKSHPAYIFEAAEPMSDGIAQAAVLTRSVVATGGLPDTILLNSAAKLEIDEEMVKDAILHGERYNPSLEKLPARFDPVMFWIRHPRLHGTPVIKKNNIILNNLLRHVVLGGLRTQALKQNFQFSTKILQKNSNFLWKIQKNLIFSDFRLKLKNFCRVNRDSPLSVYVSGGQYFSKNALVLRAQPHLTVQSADSTVTMPWAGPIDVKAVWRIFTKMFSFSSFSYQNSSIFHQKLSKIFSAEPLPDIYPISPVIDFSMDTIYNDDVLLTRRSQQQKTHIHSILWSREQDQKYPWTSEQNMANAILTTYAAAVAEATRNGATTELEKPLLVRGVQLVNGRLDLVAMQLNTLKPTSEAGNNDEKNIVWIEKGLRLYKPTPYYEQMDTVEKLDMTVFHKFVALMLGFGAPHAH”, the “soluble on expression in E. coli” value is given as “not soluble”.
